# According to patent US20160187342, “DNA Aptamer Specifically Binding to EN2 (Engrailed-2) and Use Thereof” (POSTECH ACADEMY-INDUSTRY FOUNDATION, published 2016):
# T1: EN2 (Engrailed-2) (UniProt P19622 P19622:1-333)
# T1 sequence: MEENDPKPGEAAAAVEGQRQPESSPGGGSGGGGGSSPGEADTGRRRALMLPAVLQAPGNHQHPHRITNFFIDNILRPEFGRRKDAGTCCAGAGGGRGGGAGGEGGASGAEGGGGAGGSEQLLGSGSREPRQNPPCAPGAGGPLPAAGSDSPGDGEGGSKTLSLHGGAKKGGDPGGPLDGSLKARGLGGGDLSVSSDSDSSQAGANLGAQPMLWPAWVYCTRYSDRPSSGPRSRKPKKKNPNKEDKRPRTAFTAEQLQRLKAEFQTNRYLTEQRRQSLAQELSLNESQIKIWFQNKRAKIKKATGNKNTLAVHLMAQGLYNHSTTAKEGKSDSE
# B1: hpDNA4 (structured_DNA)
# DNA: CGTGTAATTACCTCCAGACCAGGAGAGGTAATTACACG
# B2: hpDNA1 (structured_DNA)
# DNA: CGTGTAATTACCTCCAGAGAGGTAATTACACG
# B3: hpDNA6 (structured_DNA)
# DNA: CGCAGTGTAATTACCTCGACCAGAAGGAGTCGAGGTAATTACACTGCG
# B4: hpDNA5 (structured_DNA)
# DNA: CGTAATTACCCAGAAGGAGGTAATTACG
# B5: hpDNA2 (structured_DNA)
# DNA: CGTGTAATTACCTCCAGGGAGAGGTAATTACACG
# B6: hpDNA3 (structured_DNA)
# DNA: CGTGTAATTACCTCCAGAAGGAGAGGTAATTACACG
# B7: dsDNA probe (dsDNA)
# DNA 1: CGTGTAATTACCTC
# DNA 2: GAGGTAATTACACG
# Experiments:
# EN2 (Engrailed-2) [1] = molecular target: T1, EN2 (Engrailed-2); assay: FAM fluorescence of protein-bound aptamer; conditions: tags: (His)6-tag, pET28a, E. coli BL21(DE3), hairpin
# Protocol: (§1) Then, in order to compare binding strengths between the EN2 protein and each of the DNA aptamers, a dissociation constant (Kd) between the EN2 protein and each of the DNA aptamers was measured. In this case, fluorescein amidite (FAM) was attached to the DNA aptamer as a marker, and an amount of the DNA aptamer bound to the protein was measured according to a fluorescent signal of FAM.
# EN2 (Engrailed-2) [2] = molecular target: T1, EN2 (Engrailed-2); assay: FAM fluorescence of protein-bound aptamer; printed as hDNA5; conditions: tags: (His)6-tag, pET28a, E. coli BL21(DE3); label: FAM; hairpin, loop 8 bases, stem 10 bp
# Protocol: as §1
# [3] = molecular target: TATA box binding protein (TBP) (UniProt P20226 P20226:1-339); assay: impedance biosensor on gold, 10 pM protein in artificial urine; conditions: label: FAM (Kd assay); poly A linker to gold surface (biosensor); hairpin, loop 8 bases, stem 14 bp
# Sequence of TATA box binding protein (TBP) (P20226 whole entry, one chain of several): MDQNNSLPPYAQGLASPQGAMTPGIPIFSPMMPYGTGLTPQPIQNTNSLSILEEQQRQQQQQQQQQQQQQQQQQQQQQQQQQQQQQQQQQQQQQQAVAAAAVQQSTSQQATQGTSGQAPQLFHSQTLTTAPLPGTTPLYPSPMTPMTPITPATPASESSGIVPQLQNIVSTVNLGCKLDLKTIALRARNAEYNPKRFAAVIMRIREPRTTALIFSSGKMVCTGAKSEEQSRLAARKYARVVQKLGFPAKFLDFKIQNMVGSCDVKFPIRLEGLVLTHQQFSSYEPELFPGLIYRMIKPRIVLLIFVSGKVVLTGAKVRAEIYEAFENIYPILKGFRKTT
# Protocol: In order to identify selective binding of the DNA aptamer, a binding specificity with respect to several protein samples was identified. Each protein was mixed in an artificial urine medium to have a concentration of 10 pM, and then it was identified whether binding to the DNA aptamer was performed.
# EN2 (Engrailed-2) [4] = molecular target: T1, EN2 (Engrailed-2); assay: FAM fluorescence; second strand printed 3'-5' in Table 1; EMSA, SPR and SYBR Green I displacement also showed binding of TAATTA dsDNA; conditions: tags: (His)6-tag, pET28a, E. coli BL21(DE3); label: FAM
binder,measurement,setting,value
B1,Kd,"EN2 (Engrailed-2) [1]; label: FAM, loop 10 bases, stem 14 bp",88.8 nM
B2,Kd,"EN2 (Engrailed-2) [1]; label: FAM, loop 4 bases, stem 14 bp",85.7 nM
B3,Kd,"EN2 (Engrailed-2) [1]; label: FAM, loop 8 bases, stem 20 bp",61 nM
B4,Kd,EN2 (Engrailed-2) [2],68.8 nM
B5,Kd,"EN2 (Engrailed-2) [1]; label: FAM, loop 6 bases, stem 14 bp",98.8 nM
B6,Kd,"EN2 (Engrailed-2) [1]; label: FAM (Kd assay), poly A linker to gold surface (biosensor), loop 8 bases, stem 14 bp",66.3 nM
same,binding result,[3],no binding
B7,Kd,EN2 (Engrailed-2) [4],95.2 nM
